From publication PMC3766443 (Nature structural & molecular biology, 2013)

Target: Arp2 subunit of Bos taurus Arp2/3 complex (Bos taurus, UniProt A7MB62 1-394)
Assay: crystal structure

B1: Mus musculus GMFγ (glial maturation factor gamma), GST tag removed (natural protein)
chain: MSDSLVVCEVDPELKETLRKFRFRKETNNAAIIMKVDKDRQMVVLEDELQNISPEELKLELPERQPRFVVYSYKYVHDDGRVSYPLCFIFSSPVGCKPEQQMMYAGSKNRLVQTAELTKVFEIRTTDDLTETWLKEKLAFFR
Does B1 bind?
Result: binds
